Laboratory results reported in PMC5460178 (NPJ Biofilms and Microbiomes, 2017).

Target: the molecule itself
Experiment: SEC

B1: GroEL-P (His6-GroEL of B. anthracis co-expressed with PrkCc in E. coli, phosphorylated) (natural protein)
chain: MAKDIKFSEEARRSMLRGVDTLANAVKVTLGPKGRNVVLEKKFGSPLITNDGVTIAKEIELEDAFENMGAKLVAEVASKTNDVAGDGTTTATVLAQAMIREGLKNVTAGANPMGLRKGIEKAVVAAVEELKTISKPIEGKSSIAQVAAISAADEEVGQLIAEAMERVGNDGVITLEESKGFTTELDVVEGMQFDRGYASPYMITDSDKMEAVLDNPYILITDKKISNIQEILPVLEQVVQQGKPLLIIAEDVEGEALATLVVNKLRGTFNVVAVKAPGFGDRRKAMLEDIAILTGGEVITEELGRDLKSATVESLGRAGKVVVTKENTTVVEGVGSTEQIEARIGQIRAQLEETTSEFDREKLQERLAKLVGGVAVIKVGAATETELKERKLRIEDALNSTRAAVEEGIVAGGGTSLMNVYTKVASIVAEGDEATGINIVLRALEEPVRQIAINAGLEGSVVVERLKGEKVGVGFNAATGEWVNMLETGIVDPAKVTRSALQNAASVAAMFLTTEAVVADKPEPNAPAMPDMGGMGMGGMGGMM
- stoichiometry N: 14
